Results taken from patent US20170298096A1 (CANIMGUIDE THERAPEUTICS, published 2017).
No end group written: not given here.

B1: SEQ ID NO 12 (peptide)
peptide: KKLDTFTVKLSLFTER
B2: SEQ ID NO 287 (peptide)
peptide: KKGDTFFVKLSLFTER
B3: SEQ ID NO 275 (peptide)
peptide: MKLDTFFVKLSLFTER
B4: SEQ ID NO 309 (peptide)
peptide: KKLDRFFVKLSLFTER
B5: SEQ ID NO 295 (peptide)
peptide: KKSDTFFVKLSLFTER
B6: SEQ ID NO 315 (peptide)
peptide: KKLDTMFVKLSLFTER
B7: SEQ ID NO 310 (peptide)
peptide: KKLDSFFVKLSLFTER
B8: SEQ ID NO 14 (peptide)
peptide: KKLDTFFVKVSLFTER
B9: SEQ ID NO 278 (peptide)
peptide: QKLDTFFVKLSLFTER
B10: SEQ ID NO 292 (peptide)
peptide: KKNDTFFVKLSLFTER
B11: SEQ ID NO 276 (peptide)
peptide: NKLDTFFVKLSLFTER
B12: SEQ ID NO 281 (peptide)
peptide: VKLDTFFVKLSLFTER
B13: SEQ ID NO 29 (peptide)
peptide: KKLDTFFVKLSLATER
B14: SEQ ID NO 300 (peptide)
peptide: KKLITFFVKLSLFTER
B15: SEQ ID NO 304 (peptide)
peptide: KKLDCFFVKLSLFTER
B16: SEQ ID NO 298 (peptide)
peptide: KKLATFFVKLSLFTER
B17: SEQ ID NO 280 (peptide)
peptide: TKLDTFFVKLSLFTER
B18: SEQ ID NO 269 (peptide)
peptide: DKLDTFFVKLSLFTER
B19: SEQ ID NO 27 (peptide)
peptide: KKLDTFFVKLSLSTER
B20: SEQ ID NO 21 (peptide)
peptide: KKLDTFFVKLSMFTER
B21: SEQ ID NO 18 (peptide)
peptide: KKLDTFFVKLHLFTER
B22: SEQ ID NO 26 (peptide)
peptide: KKLDTFFVKLSLPTER
B23: SEQ ID NO 30 (peptide)
peptide: KKLDTFFVKLSLRTER
B24: SEQ ID NO 301 (peptide)
peptide: KKLVTFFVKLSLFTER
B25: SEQ ID NO 288 (peptide)
peptide: KKHDTFFVKLSLFTER
B26: SEQ ID NO 279 (peptide)
peptide: RKLDTFFVKLSLFTER
B27: SEQ ID NO 31 (peptide)
peptide: KKLDTFFVKLSLFNER
B28: SEQ ID NO 296 (peptide)
peptide: KKTDTFFVKLSLFTER
B29: SEQ ID NO 273 (peptide)
peptide: IKLDTFFVKLSLFTER
B30: SEQ ID NO 268 (peptide)
peptide: AKLDTFFVKLSLFTER
B31: SEQ ID NO 28 (peptide)
peptide: KKLDTFFVKLSLGTER
B32: SEQ ID NO 283 (peptide)
peptide: KKCDTFFVKLSLFTER
B33: SEQ ID NO 307 (peptide)
peptide: KKLDPFFVKLSLFTER
B34: SEQ ID NO 19 (peptide)
peptide: KKLDTFFVKLSQFTER
B35: SEQ ID NO 306 (peptide)
peptide: KKLDNFFVKLSLFTER
B36: SEQ ID NO 299 (peptide)
peptide: KKLETFFVKLSLFTER
B37: SEQ ID NO 286 (peptide)
peptide: KKFDTFFVKLSLFTER
B38: SEQ ID NO 13 (peptide)
peptide: KKLDTFLVKLSLFTER
B39: SEQ ID NO 291 (peptide)
peptide: KKMDTFFVKLSLFTER
B40: SEQ ID NO 294 (peptide)
peptide: KKRDTFFVKLSLFTER
B41: SEQ ID NO 277 (peptide)
peptide: PKLDTFFVKLSLFTER
B42: SEQ ID NO 311 (peptide)
peptide: KKLDWFFVKLSLFTER
B43: SEQ ID NO 289 (peptide)
peptide: KKIDTFFVKLSLFTER
B44: SEQ ID NO 274 (peptide)
peptide: LKLDTFFVKLSLFTER
B45: SEQ ID NO 313 (peptide)
peptide: KKLDTAFVKLSLFTER
B46: SEQ ID NO 290 (peptide)
peptide: KKKDTFFVKLSLFTER
B47: SEQ ID NO 314 (peptide)
peptide: KKLDTIFVKLSLFTER
B48: SEQ ID NO 20 (peptide)
peptide: KKLDTFFVKLSVFTER
B49: SEQ ID NO 303 (peptide)
peptide: KKLYTFFVKLSLFTER
B50: SEQ ID NO 271 (peptide)
peptide: GKLDTFFVKLSLFTER
B51: SEQ ID NO 272 (peptide)
peptide: HKLDTFFVKLSLFTER
B52: SEQ ID NO 32 (peptide)
peptide: KKLDTFFVKLSLFPER
B53: SEQ ID NO 317 (peptide)
peptide: KKLDTPFVKLSLFTER
B54: SEQ ID NO 17 (peptide)
peptide: KKLDTFFVKLTLFTER
B55: SEQ ID NO 270 (peptide)
peptide: EKLDTFFVKLSLFTER
B56: SEQ ID NO 312 (peptide)
peptide: KKLDYFFVKLSLFTER
B57: SEQ ID NO 308 (peptide)
peptide: KKLDQFFVKLSLFTER
B58: SEQ ID NO 305 (peptide)
peptide: KKLDMFFVKLSLFTER
B59: SEQ ID NO 33 (peptide)
peptide: KKLDTFFVKLSLFRER
B60: SEQ ID NO 293 (peptide)
peptide: KKQDTFFVKLSLFTER
B61: SEQ ID NO 297 (peptide)
peptide: KKVDTFFVKLSLFTER
B62: SEQ ID NO 285 (peptide)
peptide: KKEDTFFVKLSLFTER
B63: SEQ ID NO 282 (peptide)
peptide: KKADTFFVKLSLFTER
B64: SEQ ID NO 302 (peptide)
peptide: KKLWTFFVKLSLFTER
B65: SEQ ID NO 284 (peptide)
peptide: KKDDTFFVKLSLFTER
B66: SEQ ID NO 316 (peptide)
peptide: KKLDTNFVKLSLFTER

Molecular target: T1, His-tagged P3028 (human, also: His-tag, terminus and sequence not given here)
T1 construct: used in solution in the PEPSCAN (rampo) ELISA; also called PGE73; His-tag-P3028; not shown: His tag
T1 peptide: VFDEFKPLVEEPQNLIK
Test: PEPSCAN ELISA (rampo)

B1 was tested. Which rampo value did it give?
Its rampo value is over 500 rampo units.

B2 was tested. Which “rampo score relative to the P28R control sample” value did it give?
The value was ≥ 98 % of P28R control.

Which “rampo score relative to the P28R control sample” value does the source give for B3 here?
Its value is ≥ 98 % of P28R control.

B4 was tested. Which “rampo score relative to the P28R control sample” value did it give?
The value was ≥ 98 % of P28R control.

Which “rampo score relative to the P28R control sample” value does the source give for B5 here?
Its value is ≥ 98 % of P28R control.

How did the “rampo score relative to the P28R control sample” value turn out when B6 was run?
The value was ≥ 98 % of P28R control.

Which “rampo score relative to the P28R control sample” value does the source give for B7 here?
Its value is ≥ 98 % of P28R control.

For B8, which rampo value is on record?
Its rampo value is over 500 rampo units.

How did the “rampo score relative to the P28R control sample” value turn out when B9 was run?
Its value is ≥ 98 % of P28R control.

With B10 as the binder, how does the “rampo score relative to the P28R control sample” value read?
The value was ≥ 98 % of P28R control.

With B11 as the binder, how does the “rampo score relative to the P28R control sample” value read?
Its value is ≥ 98 % of P28R control.

Which “rampo score relative to the P28R control sample” value does the source give for B12 here?
Its value is ≥ 98 % of P28R control.

For B13, which rampo value is on record?
The rampo value was over 500 rampo units.

B14 was tested. Which “rampo score relative to the P28R control sample” value did it give?
Its value is ≥ 98 % of P28R control.

Which “rampo score relative to the P28R control sample” value does the source give for B15 here?
Its value is ≥ 98 % of P28R control.

B16 was tested. Which “rampo score relative to the P28R control sample” value did it give?
The value was ≥ 98 % of P28R control.

For B17, which “rampo score relative to the P28R control sample” value is on record?
The value was ≥ 98 % of P28R control.

B18 was tested. Which “rampo score relative to the P28R control sample” value did it give?
Its value is ≥ 98 % of P28R control.

With B19 as the binder, how does the rampo value read?
The rampo value was over 500 rampo units.

For B20, which rampo value is on record?
Its rampo value is over 500 rampo units.

How did the rampo value turn out when B21 was run?
The rampo value was over 500 rampo units.

For B22, which rampo value is on record?
The rampo value was over 500 rampo units.

With B23 as the binder, how does the rampo value read?
The rampo value was over 500 rampo units.

How did the “rampo score relative to the P28R control sample” value turn out when B24 was run?
The value was ≥ 98 % of P28R control.

Which “rampo score relative to the P28R control sample” value does the source give for B25 here?
Its value is ≥ 98 % of P28R control.

How did the “rampo score relative to the P28R control sample” value turn out when B26 was run?
The value was ≥ 98 % of P28R control.

With B27 as the binder, how does the rampo value read?
Its rampo value is over 500 rampo units.

How did the “rampo score relative to the P28R control sample” value turn out when B28 was run?
The value was ≥ 98 % of P28R control.

How did the “rampo score relative to the P28R control sample” value turn out when B29 was run?
The value was ≥ 98 % of P28R control.

With B30 as the binder, how does the “rampo score relative to the P28R control sample” value read?
Its value is ≥ 98 % of P28R control.

How did the rampo value turn out when B31 was run?
Its rampo value is over 500 rampo units.

For B32, which “rampo score relative to the P28R control sample” value is on record?
The value was ≥ 98 % of P28R control.

With B33 as the binder, how does the “rampo score relative to the P28R control sample” value read?
Its value is ≥ 98 % of P28R control.

With B34 as the binder, how does the rampo value read?
The rampo value was over 500 rampo units.

Which “rampo score relative to the P28R control sample” value does the source give for B35 here?
Its value is ≥ 98 % of P28R control.

Which “rampo score relative to the P28R control sample” value does the source give for B36 here?
The value was ≥ 98 % of P28R control.

B37 was tested. Which “rampo score relative to the P28R control sample” value did it give?
The value was ≥ 98 % of P28R control.

For B38, which rampo value is on record?
The rampo value was over 500 rampo units.

B39 was tested. Which “rampo score relative to the P28R control sample” value did it give?
Its value is ≥ 98 % of P28R control.

Which “rampo score relative to the P28R control sample” value does the source give for B40 here?
The value was ≥ 98 % of P28R control.

Which “rampo score relative to the P28R control sample” value does the source give for B41 here?
Its value is ≥ 98 % of P28R control.

How did the “rampo score relative to the P28R control sample” value turn out when B42 was run?
The value was ≥ 98 % of P28R control.

With B43 as the binder, how does the “rampo score relative to the P28R control sample” value read?
The value was ≥ 98 % of P28R control.

Which “rampo score relative to the P28R control sample” value does the source give for B44 here?
Its value is ≥ 98 % of P28R control.

How did the “rampo score relative to the P28R control sample” value turn out when B45 was run?
The value was ≥ 98 % of P28R control.

B46 was tested. Which “rampo score relative to the P28R control sample” value did it give?
Its value is ≥ 98 % of P28R control.

With B47 as the binder, how does the “rampo score relative to the P28R control sample” value read?
Its value is ≥ 98 % of P28R control.

How did the rampo value turn out when B48 was run?
The rampo value was over 500 rampo units.

With B49 as the binder, how does the “rampo score relative to the P28R control sample” value read?
The value was ≥ 98 % of P28R control.

Which “rampo score relative to the P28R control sample” value does the source give for B50 here?
The value was ≥ 98 % of P28R control.

B51 was tested. Which “rampo score relative to the P28R control sample” value did it give?
The value was ≥ 98 % of P28R control.

For B52, which rampo value is on record?
Its rampo value is over 500 rampo units.

B53 was tested. Which “rampo score relative to the P28R control sample” value did it give?
Its value is ≥ 98 % of P28R control.

Which rampo value does the source give for B54 here?
Its rampo value is over 500 rampo units.

For B55, which “rampo score relative to the P28R control sample” value is on record?
The value was ≥ 98 % of P28R control.

How did the “rampo score relative to the P28R control sample” value turn out when B56 was run?
The value was ≥ 98 % of P28R control.

For B57, which “rampo score relative to the P28R control sample” value is on record?
Its value is ≥ 98 % of P28R control.

Which “rampo score relative to the P28R control sample” value does the source give for B58 here?
The value was ≥ 98 % of P28R control.

B59 was tested. Which rampo value did it give?
The rampo value was over 500 rampo units.

With B60 as the binder, how does the “rampo score relative to the P28R control sample” value read?
The value was ≥ 98 % of P28R control.

Which “rampo score relative to the P28R control sample” value does the source give for B61 here?
The value was ≥ 98 % of P28R control.

Which “rampo score relative to the P28R control sample” value does the source give for B62 here?
Its value is ≥ 98 % of P28R control.

With B63 as the binder, how does the “rampo score relative to the P28R control sample” value read?
Its value is ≥ 98 % of P28R control.

B64 was tested. Which “rampo score relative to the P28R control sample” value did it give?
The value was ≥ 98 % of P28R control.

Which “rampo score relative to the P28R control sample” value does the source give for B65 here?
Its value is ≥ 98 % of P28R control.

For B66, which “rampo score relative to the P28R control sample” value is on record?
Its value is ≥ 98 % of P28R control.
